Source: US20240166738A1 (priority 2021, published 2024)
Residue numbers refer to the chain shown, from its start.

B1: TM-13: anti-TMEM106B monoclonal antibody; CDR-H1-3 SEQ ID NO: 14, 47, 90; CDR-L1-3 SEQ ID NO: 131, 171, 195 (antibody, V domains shown)
VH: QVQLQQSGAELVKPGASVKMSCKASGYTFTTFPIEWMKQSHGKGLEWIGNFHPYNDDTKYNEKFKGKATLTVDKSSSTVYLDLSRLTSDDSAVYYCARYFYGGMDYWGQGTSVTVSS
VL: DIQMTQSPASLSVSVGETVTITCRASENIYSSLGWYQQKQGESPQLLVFAATNLADGVPSRFSGSGSGTQYSLKINSLQSEDFGTYYCQHLWSIPWTFGGGTRLEIK
B2: TM-76: anti-TMEM106B monoclonal antibody; VH SEQ ID NO: 481, VL SEQ ID NO: 516 (antibody, V domains shown)
VH: QVTLKESGPGILQPSQTLSLTCSFSGFSLSTSGMGVSWIRKPSGKGLEWLAHIFWDDDKRYNLFLKSRLTVSKDTSSNQVFLMITSVDTTDTATYYCARMGRQRDYFDYWGQGTSLTVSS
VL: QIILTQSPAIMSASLGEEITLTCSASLSISYVHWYQQKSGASPKLLIYGTSNLASGVPSRFSGSGSGTFYSLTISSVEAEDAADYYCHQWSIYRTFGGGTKLEMK
modifications: Variable Heavy Chain -- TM-76; Variable Light Chain -- TM-76
B3: TM-3: anti-TMEM106B monoclonal antibody; CDR-H1-3 SEQ ID NO: 4, 37, 80; CDR-L1-3 SEQ ID NO: 122, 162, 186 (antibody, V domains shown)
VH: QVTLKESGPGIVQPSQTLSLTCSFSGFSLNTLGRGVGWIRQPSGKGLEWLAKIWWNDDKFYYPALKSRLTISKDTSKNQIFLKIANVDTADSATYYCARIAGGTGAAYWGQGTTLTVSS
VL: DIVMTQAAFSNPVTLGTSASISCRSSKSLLHSNGITYLYWYLQKPGQSPQLLISQMSSLASGVPDRFSSGGSGTDFTLRISRVEAEDVGVFYCAQNLELPWTFGGGTKLELK
B4: TM-21: anti-TMEM106B monoclonal antibody; CDR-H1-3 SEQ ID NO: 18, 54, 97; CDR-L1-3 SEQ ID NO: 137, 168, 201 (antibody, V domains shown)
VH: EVQLVESGGGLVKPGGSLKLSCAASGFTFSNYAMSWVRETPEKRLEWVAFISDGGGYIYYADNVKDRFTISRDNAKNNLYLQMRHLKSEDTAMYYCARDGGTGFTYWGQGTLVTVSV
VL: B3 VL with Y39F, S54Y, S58N, G70S, F91Y, A94V, W101Y, L111I
B5: TM-9: anti-TMEM106B monoclonal antibody; CDR-H1-3 SEQ ID NO: 10, 43, 86; CDR-L1-3 SEQ ID NO: 122, 168, 186 (antibody, V domains shown)
VH: EVQLVESGGDLVKPGGSLKLSCVASGFTFSGYGMSWVRQTPDKRLEWVATISSGSFYIYYPDSVKGRLTVSRDNAKNTLYLQMSSLKSEDTAIYYCARQNFYYGCEDYWGQGTTLTVSS
VL: B3 VL with S54Y, S58N, D65N, G70S, F91Y, L111I
B6: TM-18: anti-TMEM106B monoclonal antibody; CDR-H1-3 SEQ ID NO: 5, 52, 95; CDR-L1-3 SEQ ID NO: 135, 174, 199 (antibody, V domains shown)
VH: EVRLQQSGPELVKPGASVKISCKTSGYTFTDYYMNWVKQSHGKSLEWIVNINPNNGDAFYNQKFKGKATLTVDKSSNTAYLDLRSLTSEDSAVYYCAREGQLRLRRVYAMDYWGQGTSVTVSS
VL: DIVLAQSPASLAVSLGQRATISCRASKSVSISVYTYVHWYQQKPGQPPKLLIYLASNLESGVPARFSGSGSGTDFTLNIHPVEEEDAATYYCQHSRELPYTFGGGTKLEIK
B7: TM-11: anti-TMEM106B monoclonal antibody; CDR-H1-3 SEQ ID NO: 12, 45, 88; CDR-L1-3 SEQ ID NO: 129, 170, 193 (antibody, V domains shown)
VH: QVQLKQSGPGQVQPSQSLSITCTVSGFSLSDYGVHWVRQSPGKGLEWLGVIWNNGNTDYNAAFISRLSINKDNSKSQVFFKMTSLQADDTAIYYCVRSLRPLHFDYWGQGTTVTVSS
VL: DIVMTQSPSSLTMSVGQKVTMHCKSSQSLLNSNNLQNYLAWYQQKPGQSPTLLVYFASIRESGVPDRFIGSGSGTDFTLTISSVQAEDLADYFCQQHYNTPFTFGSGTKLEIR
B8: TM-61: anti-TMEM106B monoclonal antibody; VH SEQ ID NO: 467, VL SEQ ID NO: 503 (antibody, V domains shown)
VH: QVQLQQSGAELAKPGASVKLSCKASGYTFTNYWMNWVKQRPGQGLEWIGYINPSSDYTKYNQNFKDKATLTADKSSSTAYMQLNSLTYEDSAVYYCTRWGGSRSYWYFDVWGAGTTVTVSS
VL: DIVMTQSPSSLSASAGEKVTMSCKSSQSLLNSGNQKNYLAWYQQKPGQSPKLLIYGASTRESGVPDRFTGSGSGTDFTLTISSVQAEDLAVYYCQNDSNYPFTFGGGTKLEMK
modifications: Variable Heavy Chain -- TM-61; Variable Light Chain -- TM-61
B9: TM-10: anti-TMEM106B monoclonal antibody; CDR-H1-3 SEQ ID NO: 11, 44, 87; CDR-L1-3 SEQ ID NO: 128, 169, 192 (antibody, V domains shown)
VH: QVQLQQSGAELVKPGASVKISCKGSGYAFSSYWMNWVKQRPGKGLEWIGQIYPGDGDTNYNGKFKGKATLTADKSSTTAYIHLSSLTSEDSAVYFCARWGHYDEAMDDWGQGTSVTVSS
VL: DVVMTQTPLSLPVSLGDQASISCRSSQSLVHSNGKTYLHWYVQKPGQSPKLLIYKISNRFSGVPDRFSGSGSGTDFTLKISRVEAEDLGVYFCSQITHVPWTFGGGTKLESK
B10: TM-60: anti-TMEM106B monoclonal antibody; VH SEQ ID NO: 413, VL SEQ ID NO: 502 (antibody, V domains shown)
VH: QVQLQQSGPELVKPGASVKLSCKASGYTFTSYDINWVKQRPGQGLEWIGWIYPRDGNTQYIEKLKGKATLTVDTSSSTAYMELHSLTSEDSAVYFCARWIFYAMDYWGQGTSVTVSS
VL: DVLMTQTPLSLPVSLGDQASISCRSSQSIVHGNGNTYLEWYLQKPGQSPKLLIYKVSNRFSGVPDRFSGSGSGTDFTLKISRVEAEDLGVYYCFQGSHLPYTFGGGTKLEIK
modifications: Variable Heavy Chain -- TM-48, TM-60; Variable Light Chain -- TM-60
B11: TM-19: anti-TMEM106B monoclonal antibody; CDR-H1-3 SEQ ID NO: 13, 53, 96; CDR-L1-3 SEQ ID NO: 136, 175, 200 (antibody, V domains shown)
VH: DVQLQQSGAELVRPGASVKLSCTASGFNIKDYYMYWVKQRPEQGLEWIGRIDPEDGDTENAPKFRGMATMTADTSSNTAYLQLNSLTSEDTAVYYCTTRIGNLYHVMDYWGHGTSVTVSS
VL: B10 VL with G32S, S48A, Y54D, S57F, L99V, Y101F, G105S
B12: TM-12: anti-TMEM106B monoclonal antibody; CDR-H1-3 SEQ ID NO: 13, 46, 89; CDR-L1-3 SEQ ID NO: 130, 169, 194 (antibody, V domains shown)
VH: EVQLQQSGAELMRPGASVKLSCTASGFNIQDYYMYWVKQRPEQGLEWIGRIDPEDGDAEYAPKFQGKATMTADTSSNTAYLQLSSLTSEDTAVYYCSTRVIYDGYYRTMDCWGQGTSVTVSS
VL: B10 VL with T7I, S28T, G32S, Q43K, Y54D, V56I, L99V

target: GST-TMEM106B (truncated, comprising amino acids 122-210 of SEQ ID NO:1) (Homo sapiens, UniProt Q9NUM4); experiment: Pre-mix epitope binning of anti-TMEM106B antibodies (Carterra / Lake Pharma); assay type: binding; design: key to epitope bin: Bin 1: competes for binding to the same or overlapping TMEM106B region as the TM1, TM17, TM22, TM26, TM79, and/or TM82 antibodies; Bin 2: competes for binding to the same or overlapping TMEM106B region as the TM3, TM9, TM10, TM11, TM12, TM13, TM18, TM19, TM21, TM24, TM25, TM32, TM35, TM37, TM42, TM45, TM48, TM54, TM59, TM60, TM61, and/or TM76 antibodies; Bin 3: competes for binding to the same or overlapping TMEM106B region as the TM7, TM15, TM83, and/or TM84 antibodies; Bin 4: competes for binding to the same or overlapping TMEM106B region as the TMS, TM28, TM29, TM30, TM63, TM64, TM72, TM78, TM80, TM86, and/or TM88 antibodies; Bin 5: does not bind to a truncated TMEM106B comprising amino acids 122-210 of SEQ ID NO:1; details: competition for binding to truncated GST-TMEM106B (amino acids 122-210)
Method: (§1) Monoclonal anti-TMEM106B antibodies were immobilized to a CMD 50M chip (Xantec # SPMXCMD5OM lot# SCCMD50M0416). The running buffer was HBS-EP+ with 1 mg/mL BSA. The GST-TMEM106B (truncated, comprising amino acids 122-210 of SEQ ID NO:1) antigen was prepared at a final concentration of 55 nM (corresponding to 2 μg/mL) and mixed with the competing analyte anti-TMEM106B antibodies at a final concentration of 333 nM (corresponding to 50 μg/mL) or compared to a buffer control. Samples were injected for 5 minutes over the array and regenerated after every cycle with 1 minute of two parts Pierce IgG-Elution buffer (ThermoFisher Cat#21004) and 1 part of 10 mM Glycine, pH 2.0 (Carterra).
Anti-TMEM106B antibodies sorted into various competing bins and resulting binning profiles. […] Antibodies within Bin 3 or Bin 4 partially block Bin 2 antibodies.
as §1, with “SPMXCMD50M” for “SPMXCMD5OM”, “lmg/ml” for “1 mg/mL”, “(truncated)” for “(truncated, comprising amino acids 122-210 of SEQ ID NO:1)”, “μg/ml)” for “μg/mL)”

GST-TMEM106B (truncated, comprising amino acids 122-210 of SEQ ID NO:1), sequence (Q9NUM4 122-210): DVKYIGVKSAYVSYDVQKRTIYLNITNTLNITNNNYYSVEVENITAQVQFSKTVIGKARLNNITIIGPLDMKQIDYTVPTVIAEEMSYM

Row | Molecule | epitope bin
1 | B1 | Bin 2
2 | B2 | Bin 2
3 | B3 | Bin 2
4 | B4 | Bin 2
5 | B5 | Bin 2
6 | B6 | Bin 2
7 | B7 | Bin 2
8 | B8 | Bin 2
9 | B9 | Bin 2
10 | B10 | Bin 2
11 | B11 | Bin 2
12 | B12 | Bin 2

same assay, conditions: epitope bin number; pre-mix binning on truncated GST-TMEM106B

Row | Molecule | Binding Community/Bin
13 | B1 | 2
14 | B2 | 2
15 | B3 | 2
16 | B4 | 2
17 | B5 | 2
18 | B6 | 2
19 | B7 | 2
20 | B8 | 2
21 | B9 | 2
22 | B10 | 2
23 | B11 | 2
24 | B12 | 2
